What follows are binders tested against CD24(27-56aa)-GST NEOX-4 (human) (assay: ELISA).
Sequence of CD24(27-56aa)-GST NEOX-4 (human) (chain, as listed by the source): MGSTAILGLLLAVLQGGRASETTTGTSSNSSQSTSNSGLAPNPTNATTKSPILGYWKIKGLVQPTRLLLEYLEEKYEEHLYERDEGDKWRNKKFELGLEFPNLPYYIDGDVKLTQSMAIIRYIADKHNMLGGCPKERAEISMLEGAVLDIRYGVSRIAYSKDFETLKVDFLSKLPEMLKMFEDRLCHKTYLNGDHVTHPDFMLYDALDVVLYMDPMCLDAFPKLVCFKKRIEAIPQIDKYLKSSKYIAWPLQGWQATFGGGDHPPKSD

Row | Binder | EC50
1 | huG14-211 (antibody, V domains shown) VH: EVQLVESGGGLVKPGGSLRLSCAASGLTFSNYWGNWVRQAPGKGLEWVALIRLYSDNYAIHYAESVKGRFTISRDDSKSTVYLQMNSLKTEDTAVYYCTTGTDYWGQGTTVTVSS VL: DVVMTQSPLSLPVTPGRPASISCKSSHSLLYSNGETYLNWLLQKPGQSPQRLIYLVSKLDSGVPDRFSGSGSGTDFTLKISRVEAEDLGVYYCIQGTYFPYTFGQGTKLEIK | 3.34 ng/mL
2 | huG14-226 (antibody, V domains shown) VH: EVQLVESGGGLVKPGGSLRLSCAASGLTFSNYWGNWVRQAPGKGLEWVALIRLYSDNYAIHYAESVKGRFTISRDDSKSTVYLQMNSLKTEDTAVYYCTTGTDNWGQGTTVTVSS VL: DVVMTQSPLSLPVTPGRPASISCKSSHSLLYSNGKTYLNWLLQKPGQSPQRLIYLVSKLDSGVPDRFSGSGSGTDFTLKISRVEAEDLGVYYCVQGTYFPYTFGQGTKLEIK | 10.7 ng/mL
3 | huG14-207 (antibody, V domains shown) VH: EVQLVESGGGLVKPGGSLRLSCAASGLTFSNYWMNWVRQAPGKGLEWVALIRLYSDNYAIHYAESVKGRFTISRDDSKSTVYLQMNSLKTEDTAVYYCTTGTDYWGQGTTVTVSS VL: DVVMTQSPLSLPVTPGRPASISCKSSQSLLYSNGKTYLNWLLQKPGQSPQRLIYLVSKLDSGVPDRFSGSGSGTDFTLKISRVEAEDLGVYYCIQGTYFPYTFGQGTKLEIK | 5.71 ng/mL
4 | huG14-231 (antibody, V domains shown) VH: EVQLVESGGGLVKPGGSLRLSCAASGLTFSNYWGNWVRQAPGKGLEWVALIRLYSDNYAIHYAESVKGRFTISRDDSKSTVYLQMNSLKTEDTAVYYCTTGTDNWGQGTTVTVSS VL: DVVMTQSPLSLPVTPGRPASISCKSSHSLLYSNGRTYLNWLLQKPGQSPQRLIYLVSKLDSGVPDRFSGSGSGTDFTLKISRVEAEDLGVYYCIQGTYFPYTFGQGTKLEIK | 8.25 ng/mL
5 | huG14-228 (antibody, V domains shown) VH: EVQLVESGGGLVKPGGSLRLSCAASGLTFSNYWGNWVRQAPGKGLEWVALIRLYSDNYAIHYAESVKGRFTISRDDSKSTVYLQMNSLKTEDTAVYYCTTGTDNWGQGTTVTVSS VL: DVVMTQSPLSLPVTPGRPASISCKSSQSLLYSNGKTYLNWLLQKPGQSPQRLIYLVSKLDSGVPDRFSGSGSGTDFTLKISRVEAEDLGVYYCIQGTYFPYTFGQGTKLEIK | 9.88 ng/mL
6 | huG14-206 (antibody, V domains shown) VH: EVQLVESGGGLVKPGGSLRLSCAASGLTFSNYWMNWVRQAPGKGLEWVALIRLYSDNYAIHYAESVKGRFTISRDDSKSTVYLQMNSLKTEDTAVYYCTTGTDYWGQGTTVTVSS VL: DVVMTQSPLSLPVTPGRPASISCKSSHSLLYSNGRTYLNWLLQKPGQSPQRLIYLVSKLDSGVPDRFSGSGSGTDFTLKISRVEAEDLGVYYCVQGTYFPYTFGQGTKLEIK | 4.92 ng/mL
7 | huG14-223 (antibody, V domains shown) VH: EVQLVESGGGLVKPGGSLRLSCAASGLTFSNYWMNWVRQAPGKGLEWVALIRLYSDNYAIHYAESVKGRFTISRDDSKSTVYLQMNSLKTEDTAVYYCTTGTDNWGQGTTVTVSS VL: DVVMTQSPLSLPVTPGRPASISCKSSHSLLYSNGKTYLNWLLQKPGQSPQRLIYLVSKLDSGVPDRFSGSGSGTDFTLKISRVEAEDLGVYYCIQGTYFPYTFGQGTKLEIK | 4.82 ng/mL
8 | huG14-204 (antibody, V domains shown) VH: EVQLVESGGGLVKPGGSLRLSCAASGLTFSNYWMNWVRQAPGKGLEWVALIRLYSDNYAIHYAESVKGRFTISRDDSKSTVYLQMNSLKTEDTAVYYCTTGTDYWGQGTTVTVSS VL: DVVMTQSPLSLPVTPGRPASISCKSSHSLLYSNGETYLNWLLQKPGQSPQRLIYLVSKLDSGVPDRFSGSGSGTDFTLKISRVEAEDLGVYYCIQGTYFPYTFGQGTKLEIK | 6.67 ng/mL
9 | huG14-208 (antibody, V domains shown) VH: EVQLVESGGGLVKPGGSLRLSCAASGLTFSNYWMNWVRQAPGKGLEWVALIRLYSDNYAIHYAESVKGRFTISRDDSKSTVYLQMNSLKTEDTAVYYCTTGTDYWGQGTTVTVSS VL: DVVMTQSPLSLPVTPGRPASISCKSSQSLLYSNGRTYLNWLLQKPGQSPQRLIYLVSKLDSGVPDRFSGSGSGTDFTLKISRVEAEDLGVYYCIQGTYFPYTFGQGTKLEIK | 4.02 ng/mL
10 | huG14-222 (antibody, V domains shown) VH: EVQLVESGGGLVKPGGSLRLSCAASGLTFSNYWMNWVRQAPGKGLEWVALIRLYSDNYAIHYAESVKGRFTISRDDSKSTVYLQMNSLKTEDTAVYYCTTGTDNWGQGTTVTVSS VL: DVVMTQSPLSLPVTPGRPASISCKSSQSLLYSNGRTYLNWLLQKPGQSPQRLIYLVSKLDSGVPDRFSGSGSGTDFTLKISRVEAEDLGVYYCIQGTYFPYTFGQGTKLEIK | 4.91 ng/mL
11 | huG14-233 (antibody, V domains shown) VH: EVQLVESGGGLVKPGGSLRLSCAASGLTFSNYWGNWVRQAPGKGLEWVALIRLYSDNYAIHYAESVKGRFTISRDDSKSTVYLQMNSLKTEDTAVYYCTTGTDNWGQGTTVTVSS VL: DVVMTQSPLRLPVTPGRPASISCKSSHSLLYSNGRTYLNWLLQKPGQSPQRLIYLVSKLDSGVPDRFSGSGSGTDFTLKISRVEAEDLGVYYCIQGTYFPYTFGIGTKLEIK | 8.41 ng/mL
12 | huG14-220 (antibody, V domains shown) VH: EVQLVESGGGLVKPGGSLRLSCAASGLTFSNYWMNWVRQAPGKGLEWVALIRLYSDNYAIHYAESVKGRFTISRDDSKSTVYLQMNSLKTEDTAVYYCTTGTDNWGQGTTVTVSS VL: DVVMTQSPLSLPVTPGRPASISCKSSHSLLYSNGRTYLNWLLQKPGQSPQRLIYLVSKLDSGVPDRFSGSGSGTDFTLKISRVEAEDLGVYYCVQGTYFPYTFGQGTKLEIK | 5.17 ng/mL

The remaining lines, values ahead:

Row | EC50 | Binder
13 | 5.93 ng/mL | huG14-221 (antibody, V domains shown) VH: EVQLVESGGGLVKPGGSLRLSCAASGLTFSNYWMNWVRQAPGKGLEWVALIRLYSDNYAIHYAESVKGRFTISRDDSKSTVYLQMNSLKTEDTAVYYCTTGTDNWGQGTTVTVSS VL: DVVMTQSPLSLPVTPGRPASISCKSSQSLLYSNGKTYLNWLLQKPGQSPQRLIYLVSKLDSGVPDRFSGSGSGTDFTLKISRVEAEDLGVYYCIQGTYFPYTFGQGTKLEIK
14 | 6.18 ng/mL | huG14-224 (antibody, V domains shown) VH: EVQLVESGGGLVKPGGSLRLSCAASGLTFSNYWMNWVRQAPGKGLEWVALIRLYSDNYAIHYAESVKGRFTISRDDSKSTVYLQMNSLKTEDTAVYYCTTGTDNWGQGTTVTVSS VL: DVVMTQSPLSLPVTPGRPASISCKSSHSLLYSNGRTYLNWLLQKPGQSPQRLIYLVSKLDSGVPDRFSGSGSGTDFTLKISRVEAEDLGVYYCIQGTYFPYTFGQGTKLEIK
15 | 4.71 ng/mL | huG14-218 (antibody, V domains shown) VH: EVQLVESGGGLVKPGGSLRLSCAASGLTFSNYWMNWVRQAPGKGLEWVALIRLYSDNYAIHYAESVKGRFTISRDDSKSTVYLQMNSLKTEDTAVYYCTTGTDNWGQGTTVTVSS VL: DVVMTQSPLSLPVTPGRPASISCKSSHSLLYSNGETYLNWLLQKPGQSPQRLIYLVSKLDSGVPDRFSGSGSGTDFTLKISRVEAEDLGVYYCIQGTYFPYTFGQGTKLEIK
16 | 3.41 ng/mL | huG14-215 (antibody, V domains shown) VH: EVQLVESGGGLVKPGGSLRLSCAASGLTFSNYWGNWVRQAPGKGLEWVALIRLYSDNYAIHYAESVKGRFTISRDDSKSTVYLQMNSLKTEDTAVYYCTTGTDYWGQGTTVTVSS VL: DVVMTQSPLSLPVTPGRPASISCKSSQSLLYSNGRTYLNWLLQKPGQSPQRLIYLVSKLDSGVPDRFSGSGSGTDFTLKISRVEAEDLGVYYCIQGTYFPYTFGQGTKLEIK
17 | 3.06 ng/mL | huG14-214 (antibody, V domains shown) VH: EVQLVESGGGLVKPGGSLRLSCAASGLTFSNYWGNWVRQAPGKGLEWVALIRLYSDNYAIHYAESVKGRFTISRDDSKSTVYLQMNSLKTEDTAVYYCTTGTDYWGQGTTVTVSS VL: DVVMTQSPLSLPVTPGRPASISCKSSQSLLYSNGKTYLNWLLQKPGQSPQRLIYLVSKLDSGVPDRFSGSGSGTDFTLKISRVEAEDLGVYYCIQGTYFPYTFGQGTKLEIK
18 | 6.28 ng/mL | huG14-225 (antibody, V domains shown) VH: EVQLVESGGGLVKPGGSLRLSCAASGLTFSNYWGNWVRQAPGKGLEWVALIRLYSDNYAIHYAESVKGRFTISRDDSKSTVYLQMNSLKTEDTAVYYCTTGTDNWGQGTTVTVSS VL: DVVMTQSPLSLPVTPGRPASISCKSSHSLLYSNGETYLNWLLQKPGQSPQRLIYLVSKLDSGVPDRFSGSGSGTDFTLKISRVEAEDLGVYYCIQGTYFPYTFGQGTKLEIK
19 | 4.26 ng/mL | huG14-210 (antibody, V domains shown) VH: EVQLVESGGGLVKPGGSLRLSCAASGLTFSNYWMNWVRQAPGKGLEWVALIRLYSDNYAIHYAESVKGRFTISRDDSKSTVYLQMNSLKTEDTAVYYCTTGTDYWGQGTTVTVSS VL: DVVMTQSPLSLPVTPGRPASISCKSSHSLLYSNGRTYLNWLLQKPGQSPQRLIYLVSKLDSGVPDRFSGSGSGTDFTLKISRVEAEDLGVYYCIQGTYFPYTFGQGTKLEIK
20 | 5.69 ng/mL | huG14-219 (antibody, V domains shown) VH: EVQLVESGGGLVKPGGSLRLSCAASGLTFSNYWMNWVRQAPGKGLEWVALIRLYSDNYAIHYAESVKGRFTISRDDSKSTVYLQMNSLKTEDTAVYYCTTGTDNWGQGTTVTVSS VL: DVVMTQSPLSLPVTPGRPASISCKSSHSLLYSNGKTYLNWLLQKPGQSPQRLIYLVSKLDSGVPDRFSGSGSGTDFTLKISRVEAEDLGVYYCVQGTYFPYTFGQGTKLEIK
21 | 7.63 ng/mL | huG14-227 (antibody, V domains shown) VH: EVQLVESGGGLVKPGGSLRLSCAASGLTFSNYWGNWVRQAPGKGLEWVALIRLYSDNYAIHYAESVKGRFTISRDDSKSTVYLQMNSLKTEDTAVYYCTTGTDNWGQGTTVTVSS VL: DVVMTQSPLSLPVTPGRPASISCKSSHSLLYSNGRTYLNWLLQKPGQSPQRLIYLVSKLDSGVPDRFSGSGSGTDFTLKISRVEAEDLGVYYCVQGTYFPYTFGQGTKLEIK
22 | 3.19 ng/mL | huG14-212 (antibody, V domains shown) VH: EVQLVESGGGLVKPGGSLRLSCAASGLTFSNYWGNWVRQAPGKGLEWVALIRLYSDNYAIHYAESVKGRFTISRDDSKSTVYLQMNSLKTEDTAVYYCTTGTDYWGQGTTVTVSS VL: DVVMTQSPLSLPVTPGRPASISCKSSHSLLYSNGKTYLNWLLQKPGQSPQRLIYLVSKLDSGVPDRFSGSGSGTDFTLKISRVEAEDLGVYYCVQGTYFPYTFGQGTKLEIK
